Data published in the supplement of paper PMC12764529.
± gives the half width of the 95% confidence interval.

Test: folding stability dG unfold from chymotrypsin proteolysis; higher = more stable
Method in brief: (§1)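 How resistant each design was to proteolysis was captured as K50, inferred by Bayesian fitting of sequencing counts. Unfolding free energy was then derived relative to a sequence-predicted unfolded-state K50 and a shared folded-state K50, per protease or combined. Digestion used trypsin and chymotrypsin at 11 threefold-diluted concentrations plus a no-protease condition, on mini-proteins under 80 residues without cysteine in a PA-tagged cDNA display construct. Designs were kept only when AlphaFold2 dimer inter-PAE was above 15.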

Row | Sequence | folding stability dG unfold [kcal/mol]
1 | SAGGSAGGSAGPIKITSVEYDPNSGTIIARFPDGVVIRIKMNPDGNFKIDEIYPIKPGDLSAGGSAGGSAGG [r17_61_TrROS] | 1.57 ± 0.08
2 | SAGGSAGGSAMTITITGLSPEQIEEAAKALGATVTFDKETKTVTITVSPEQLEKLKELLEKSAGGSAGGSAG [r3_354_TrROS_Hall] | 3.58 ± 0.12
3 | SAGGSAGGSMEIIPPEELLARLSPEELVLVRLPTAPRLLPREELRLLPRDIPVEVEVIPRLPPSAGGSAGGS [r12_501_TrMRF] | 2.24 ± 0.1
4 | SGSPSDDIVTTPLPGPSERATFPDGSSISRSPAGVTTTTSPTSITTTTTTPSATVTSTTTSLPPPSPSAPSA [r9_901_JUSTAS] | 0.184 ± 0.015
5 | SMVKIYAAPNVPPEQREAIERLVKRILENPDIPIDPETIGKLIKEEAGNPELTIDRIEILPLVPPGVAEKSA [r9_620_TrMRF] | 0.896 ± 0.082
6 | SAGMPKPIRLLVRNPETGKYFLVEVEEPEELVTVTLLDPETGEVRAVFEGPLEEIIAALEAEGFEVEPVSAG [r5_291_TrMRF] | 4.438 ± 0.042
7 | SAGGSAGGSAGTATLTDPNGVRIEVFPDGTVRATVYRPDPSTGEWKLAATFTFPLHPDAFSAGGSAGGSAGG [r11_497_TrMRF] | 2 ± 0.067
8 | SGITPEQIEELAREIADLFPDVEIEIYPGLEPSIFDGPGAVAVIEREEGRGYITIYFPETGEPLVIEVPDSA [r9_1062_TrMRF] | 1.3 ± 0.033
9 | SAGGSAGGSAMTFTVNSEEEVEKLKKLGGVTKTSEEPGKVTLSAPNLPPELQEKIKEVIQKSAGGSAGGSAG [r3_398_JUSTAS] | 0.434 ± 0.27
10 | SMTKTIPVTIEVDPSLSEEEIEALVEKVKEEIKEKAEAEGGKVKVTVTIEPDPNKPVVHGTITITKPKKLSA [r9_1161_JUSTAS] | -0.499 ± 0.18
11 | SAGGSAGGSAGKKVTLKVLVKNENGKLYMFEAEYEFDENGKLVKVKVKVYEVEVKDLKLPSAGGSAGGSAGG [r11_1019_TrROS_Hall] | 3.02 ± 0.039
12 | SAGMKIVVTLPDGWTATSDPSTGLITITDPKTGEPLLGKIPSSEPNKVTLYDPNNGKPLRELDIDEVEGSAG [r5_761_JUSTAS] | 0.748 ± 0.023
13 | SAGMGPNEVKPIEIEFEVYETGEGEPYLVGKAIAKLYVDPVEGTVRLEIKDPEKPEPFITFEFPVEEISAGG [r19_413_TrMRF] | 2.22 ± 0.037
14 | SAGGSAGGSAGGMATTTTKIEIYPGTGKVKTTTTVTDPSTGTTTTTTTTEETSLEELTSSAGGSAGGSAGGS [r10_173_JUSTAS] | 0.657 ± 0.082
15 | SAGKVVKISAPIEVLRNIPNVLELYVVGDKVYLVVPNELLVVDLDLPPLVPTVPESVPEELALLGGLLGSAG [r5_2_TrMRF] | 1.74 ± 0.052
16 | MRTVLLPIAGLPPEQVREAIERAVRAAREAGQPDTTLIVFNPGPAEQVEETTRLVQELADEPDFTVTVIPIS [r1_387_TrMRF] | 0.0961 ± 0.12
17 | SAGGSAGGSAMTIEELAKKGYEIRIVGPDGKVRTFKVGESLEEIAEKLGLAPGAKIEIRKVSAGGSAGGSAG [r3_216_TrROS_Hall] | 2.07 ± 0.027
18 | SAGGSAGGYIVKIKMPKFPHVFIFPPEMPPKQFADEIRRRFGNPDAPITDITIQPVTPEELKKLSAGGSAGG [r6_122_TrROS] | 1.4 ± 0.12
19 | SAGGSAMTLEFKILFPNKTKEEAIKAIEEIPEEIKKNIKKIEILKIDPVGDEVIATLKIEVDPEFLSAGGSA [r15_244_TrMRF] | 1.86 ± 0.24
20 | SKKPKVEIEIEIPSVISATPIPNTDEVLVNVPYRVKIKVIGEGPPKEVEVDLPGIMLVSDFIDELKKLLGSA [r9_656_TrMRF] | 1.74 ± 0.046
21 | SAGGMTFTITVTIPAKEKFYDPSKGIWRERELNRVITIPFSSSDIEKAKEEVRSKLPPDKYKITSVDSAGGS [r16_459_JUSTAS] | 1.21 ± 0.17

Test: folding stability dG unfold (combined trypsin and chymotrypsin); higher = more stable
Method in brief: as §1

Row | Sequence | folding stability dG unfold [kcal/mol]
22 | SAGGSAGGSAGGSEKEVEISVVLPDGYVLRVRVREVSEDGEEVEVEVELVKVKPGQKLLSAGGSAGGSAGGS [r4_72_TrROS_Hall] | 1.5 ± 0.15
23 | SAGGNDDDQKPKMVRVKIKYDNPDGEKYKIDEIWVMPPPFIMIRMPGNGQEIFIPPDQIKEIEIEPVSAGGS [r8_410_TrROS] | 0.826 ± 0.3
24 | SAGGSAGGSAGGSEELLKKNPNYIIVKKVEKVLEAKTPSGKKYTIKTTIYIITKPNELPSAGGSAGGSAGGS [r10_0_JUSTAS] | 1.84 ± 0.21
25 | SAGGSMVLVRVERTPDGTLRVTALFFFDGRLLRVERTFRLAPDGRIVDADVSVEELPVPPSEVPVLSAGGSA [r2_474_TrMRF] | 4.11 ± 0.099
26 | SAGGSAGGSAGGMYVLIKITNPKTKKEISILIKVKPGDKITFTLPNGAKVEIIELPPEESAGGSAGGSAGGS [r10_957_TrROS_Hall] | 3.92 ± 0.22
27 | SAGGMKIIPLEEAEKFIEANPDKELVIGVRPGESLYLFVVKRDPDKPFNIEVLEVIEFDPDGNGRHLPSAGG [r13_481_TrMRF] | 1.3 ± 0.16
28 | SAGGMPGEVVDISDVPPGATLYDPEGKSYGPVVDVRVTVGPDSVEITITFPDGTTRTITAPRDKIYILPSAG [r5_850_JUSTAS] | 1.59 ± 0.14
29 | SAGGSAGGSTILDALEKGFEITDIEPNNDGPYMLTVRNPEEGYRVTIMIHPNGDIMIQVQPVPSAGGSAGGS [r12_166_TrROS] | 2.06 ± 0.1
30 | SAGSKKYIPKEVTVYVLGTAPPDMSLEEALKNPNFAVSVPLKATVIYDPETKTARVLLPDGTVVEFPVPSAG [r5_701_TrMRF] | 1.52 ± 0.1
31 | SAGKVEIIPIENEDGSKFLVIKVNGKLIIITENEDGSISIKIIDLKTNKIEVIEIPKKDLKKALEKILKSAG [r5_674_TrROS_Hall] | 3.59 ± 0.2
